We go through 1 sequence from patent publication US5948622.

In the series the target is T1, Tn5 transposase EK54/MA56/LP372 (Escherichia coli transposon Tn5) (UniProt Q46731).
T1 sequence: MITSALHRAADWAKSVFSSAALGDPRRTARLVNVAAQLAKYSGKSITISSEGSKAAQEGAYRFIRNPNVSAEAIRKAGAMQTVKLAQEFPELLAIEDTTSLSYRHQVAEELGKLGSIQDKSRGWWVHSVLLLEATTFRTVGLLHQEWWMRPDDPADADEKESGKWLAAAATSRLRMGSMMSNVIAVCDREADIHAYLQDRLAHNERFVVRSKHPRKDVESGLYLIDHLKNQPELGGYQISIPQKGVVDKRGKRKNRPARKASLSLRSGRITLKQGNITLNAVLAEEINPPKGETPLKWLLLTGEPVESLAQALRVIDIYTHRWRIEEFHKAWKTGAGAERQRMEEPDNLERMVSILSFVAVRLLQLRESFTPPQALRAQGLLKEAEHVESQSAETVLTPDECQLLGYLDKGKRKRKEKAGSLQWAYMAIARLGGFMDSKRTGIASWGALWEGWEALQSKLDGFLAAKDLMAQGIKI
To be noted: pRZTL1 in vitro transposition; Mg acetate 10 mM, K glutamate 0.1 M, 20 C then 37 C; tet-resistance frequency, gel confirmed.

As for “AGT (double strand) [Tn5 outside end (OE) wild type]”, the activity is 0.1 % of cells.
